How the values were obtained:
[1] = target: T1, recombinant PSMA (rPSMA) containing a 6x His tag (human, UniProt Q04609 44-750); assay: flow cytometry of canonical CAR T cells stained with rPSMA-6xHis and anti-His; donor #1
T1 construct: Soluble staining reagent, detected with an anti-His antibody; also called prostate-specific membrane antigen
Procedure: (§1) Seven days after transduction, T cells transduced as described in example 1 were harvested to determine transduction efficiencies. 1.5×10⁵ T cells were plated in 96 well plates in duplicate. For canonical CAR T cells, T cells were cultured overnight in hTCM (human T cell media), that included of x-vivo 15 (Lonza (Basel, Switzerland)), 5% human serum (Valley Biomedical (Winchester, Va.)), and 1% Glutamax (Gibco). For synNotch T receptor expressing cells, the T cells were cultured in the presence and absence of myc beads overnight to stimulate the synNotch receptor and therebyinduce CAR expression. After overnight culture, CAR expression was measured using recombinant PSMA (rPSMA) containing a 6× His tag (SEQ ID NO: 260). The cells were stained with an anti-His antibody and the stained cells were detected via flow cytometry. Only cells bound by the rPSMA (and anti-His) are detected to measure expression.

[2] = target: T1, recombinant PSMA (rPSMA) containing a …; assay: flow cytometry, rPSMA-6xHis + anti-His; synNotch/CAR-payload T cells without myc beads (CAR not induced); donor #3
Procedure: as §1

[3] = target: T1, recombinant PSMA (rPSMA) containing a …; assay: flow cytometry, rPSMA-6xHis + anti-His; synNotch/CAR-payload T cells without myc beads (CAR not induced); donor #1

T1 sequence (Q04609 other isoform, or with tags, fused parts or gaps limits assumed): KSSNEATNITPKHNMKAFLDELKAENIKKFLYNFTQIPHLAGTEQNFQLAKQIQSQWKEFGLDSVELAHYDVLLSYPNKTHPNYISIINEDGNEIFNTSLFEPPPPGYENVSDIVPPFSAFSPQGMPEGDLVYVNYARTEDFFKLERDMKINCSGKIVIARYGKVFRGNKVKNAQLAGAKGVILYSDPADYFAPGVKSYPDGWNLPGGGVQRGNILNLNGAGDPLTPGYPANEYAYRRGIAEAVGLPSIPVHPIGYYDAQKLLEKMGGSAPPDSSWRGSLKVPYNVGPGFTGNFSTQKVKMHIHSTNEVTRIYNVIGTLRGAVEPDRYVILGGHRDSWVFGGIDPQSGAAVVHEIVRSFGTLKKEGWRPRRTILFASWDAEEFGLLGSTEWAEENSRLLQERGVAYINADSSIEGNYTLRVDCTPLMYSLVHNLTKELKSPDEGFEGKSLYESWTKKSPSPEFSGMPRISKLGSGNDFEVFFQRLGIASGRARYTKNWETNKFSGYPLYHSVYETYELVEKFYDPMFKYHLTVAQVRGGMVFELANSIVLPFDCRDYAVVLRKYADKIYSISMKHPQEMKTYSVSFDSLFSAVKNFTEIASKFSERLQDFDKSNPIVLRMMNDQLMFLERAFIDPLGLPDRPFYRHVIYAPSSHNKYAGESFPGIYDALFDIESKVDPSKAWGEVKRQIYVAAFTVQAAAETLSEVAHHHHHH

Row | Binder | % CAR+ [1] [%] | % CAR+ (Unstimulated) [2] [%] | % CAR+ (Unstimulated) [3] [%]
1 | anti-PSMA CAR with Ab1 scFv (other, Chimeric antigen receptor on the surface of transduced human T cells; Construct 101 is the constitutive EF1a vector and 201 the GAL4-inducible payload vector; also called Abl; construct 101; not shown: CD8a hinge, CD8a transmembrane, 4-1BB and CD3zeta domains) DIQLTQSPSSLSASVGDRVTITCRASSSVSHIYWYQQKPGKAPKPWIYRTSNLASGVPSRFSGSGSGTDYTLTISSLQPEDFATYYCQQYHTYPPTFGQGTKLEIKGSTSGSGKPGSGEGSTKGEVQLVESGGGLVQPGGSMRLSCAASGFTFSDYYMAWVRQAPGKGLEWIANINYDGSNTYYADSLKGRFTISRDNSKNTLYLQMNSLRAEDTAVYYCARNWDGYYGYFDVWGQGTTVTVSS | 95.4 | 6.2 | 3.7
2 | anti-PSMA CAR with Ab3 scFv (other, Chimeric antigen receptor on the surface of transduced human T cells; Constructs 103 (constitutive) and 203 (inducible payload) are treated as the same CAR protein; also called construct 103; construct 203; not shown: CD8a hinge, CD8a transmembrane, 4-1BB and CD3zeta domains) EVQLVESGGGLVQPGGSMRLSCAASGFTFSDYYMAWVRQAPGKGLEWVANINYDGTSTYYADSLKGRFTISRDSSKNTLYLQMNSLRAEDTAVYYCARALDGYYGYLDVWGQGTTVTVSSGSTSGSGKPGSGEGSTKGDIQLTQSPSSLSASVGDRVTLTCRASQSISNNLHWYQQKPGKAPKLLIKYVSQSISGIPSRFSGSGLGTDFTLTISSVQPEDFATYYCQQSNSWPYTFGQGTKLEIK |  | 4.6 | 3.2
3 | anti-PSMA CAR with Ab2 scFv (other, Chimeric antigen receptor on the surface of transduced human T cells, expressed from the GAL4-inducible payload vector; also called construct 202; Ab6 SynNotch/202; not shown: CD8a hinge, CD8a transmembrane, 4-1BB and CD3zeta domains) DIQMTQSPSSLSASVGDRVTVTCRASQNVNTNVAWYQQKPGKAPKVLIYSASYRNSGVPSRFSGSGSGTDFTLTISSVQPEDFATYYCQQYNSYPFTFGQGTKLEIKGSTSGSGKPGSGEGSTKGQVQLVQSGAEVKKPGASVKLSCKASGYTFTTYWMHWVRQAPGQGLEWIGMIHPNSGSTNYAQKFQGRATLTVDTSTSTAYMELSSLRSEDTAVYYCARDPYDYGEDFDVWGQGTTVTVSS |  | 1.4 | 
